Reference: IntAct's records for PubMed 26853155

B1: Syncytin-2 (Homo sapiens), P60508 (parent)
chain: MGLLLLVLILTPSLAAYRHPDFPLLEKAQQLLQSTGSPYSTNCWLCTSSSTETPGTAYPASPREWTSIEAELHISYRWDPNLKGLMRPANSLLSTVKQDFPDIRQKPPIFGPIFTNINLMGIAPICVMAKRKNGTNVGTLPSTVCNVTFTVDSNQQTYQTYTHNQFRHQPRFPKPPNITFPQGTLLDKSSRFCQGRPSSCSTRNFWFRPADYNQCLQISNLSSTAEWVLLDQTRNSLFWENKTKGANQSQTPCVQVLAGMTIATSYLGISAVSEFFGTSLTPLFHFHISTCLKTQGAFYICGQSIHQCLPSNWTGTCTIGYVTPDIFIAPGNLSLPIPIYGNSPLPRVRRAIHFIPLLAGLGILAGTGTGIAGITKASLTYSQLSKEIANNIDTMAKALTTMQEQIDSLAAVVLQNRRGLDMLTAAQGGICLALDEKCCFWVNQSGKVQDNIRQLLNQASSLRERATQGWLNWEGTWKWFSWVLPLTGPLVSLLLLLLFGPCLLNLITQFVSSRLQAIKLQTNLSAGRHPRNIQESPF
partner: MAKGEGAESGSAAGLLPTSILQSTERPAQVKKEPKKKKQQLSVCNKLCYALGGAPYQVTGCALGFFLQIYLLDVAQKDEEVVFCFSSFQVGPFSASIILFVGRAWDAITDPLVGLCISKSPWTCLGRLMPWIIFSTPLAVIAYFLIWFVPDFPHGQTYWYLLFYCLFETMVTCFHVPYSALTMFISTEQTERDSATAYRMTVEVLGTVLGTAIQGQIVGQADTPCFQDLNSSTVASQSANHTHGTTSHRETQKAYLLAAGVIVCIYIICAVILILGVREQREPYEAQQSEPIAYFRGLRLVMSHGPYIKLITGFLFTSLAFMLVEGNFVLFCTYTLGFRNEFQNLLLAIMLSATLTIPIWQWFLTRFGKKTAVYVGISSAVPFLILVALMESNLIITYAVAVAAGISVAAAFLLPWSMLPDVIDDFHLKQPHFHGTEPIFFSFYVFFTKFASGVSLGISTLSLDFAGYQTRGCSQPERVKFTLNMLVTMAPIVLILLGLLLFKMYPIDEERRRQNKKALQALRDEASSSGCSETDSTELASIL

Variants of: B1
Details: with nls1_human MFSD2A

Variant	effect of a mutation on the interaction
N133Q	decreasing interaction strength
N332Q	decreasing interaction strength
N312Q	decreasing interaction strength
C46R	decreasing interaction strength
N118S	increasing interaction strength

The remaining lines, values ahead:

effect of a mutation on the interaction	Variant
decreasing interaction strength	T522M
disrupting interaction strength	N443Q
disrupting interaction strength	T367M
decreasing interaction strength	V483I
decreasing interaction strength	R417H
